Source: US20250027068A1 (published 2025)

target: pooled human IgG (human); assay: cell-based or functional assay
Also: test concentration or dose not given here.

Binder | Enzyme Activity Endpoint Assay (purified): Fab′2 [ng/µL] | Enzyme Activity Endpoint Assay (purified): Fc [ng/µL] | Enzyme Activity Endpoint Assay (purified): IgG [ng/µL] | Enzyme Activity Endpoint Assay (purified): scIgG [ng/µL]
PRT-217 (enzyme) MEVVEVWPYGQNPNGKTEILSQTEDSESLQRLRDIEDFQAEKKKQNVVYTKWLDGVTVDDSDFRKIKDGNTEYYATPLLNGRGFYDINKDFNRDSDKCAAAVAANMFHYWLDRNRDNVDRFLKQNPEKHGIIELPDGQLKLSDFLNTYESDNNYRDKSKLFDFISKNFNGPVWTNKLLDNYINGYGYNYKYGRTIEDPTKNTSKINFFKKVFNEKILTNVHQIFNYNEFSTLLSEALYTGKAIGLSYGPGGLRHSLGHIISVWGADLDADGNVVAIYVTDSDDKKLTIGDERVGLKRYKISTDDEGRARLTAYTETDNTGGQVRGIYTLDTGKQAWADYFDKTEQTGTDQAEQLEHHHHHH | 0 | 86 | 1580 | 41
PRT-209 (enzyme) MEVVEVWPYGQNPNGKTEILSQTEDSESLQRLRDIEDFQAEKKKQGVVYTKWLDGVDVDDHDFRKIVDGNIAYYATPLLNGKGFYDINKDFNRDSDKCAAAVAANMFHYWLDQNRDNVDRFLRQNPEKHGIIELPDGQLKLSDFLNTYESDNGYRDKSKLFDFISNNFNGPVWTDKLLDNYINGYAYNYKYGRTIEDPTKNTSKINFFKDVFNEKILTNIHSIRNYNTFSNLLSEALYTGKAIGLSYGPAGLRHSLGHIISVWGADLDEDGNVVAIYVTDSDDKKLTIGDERVGLKRYKISTDDEGRARLTAYEENDNTGGEIRGLYTLDTGKQAWADYFDKTEQTGTDQAEQLEHHHHHH | 0 | 124 | 1670 | 71
PRT-211 (enzyme) MEVVEVWPYGQNPNGKTEILSQTEDSESLQRLRDIEDFQAEKKKQGVVYTKWLDGVDVDDHDFRKIVDGNIAYYATPLLNGKGFYDINKDFNRDSDKCAAAVAANMFHYWLDQNRDNVDRFLRQNPEKHGIIELPDGQLKLSDFLNTYESDNGYRDKSKLFDFISNNFNGPVWTDKLLDNYINGYAYNYKYGRTIEDPTKNTSKINFFKDVFNEKILTNIHSIRNYNTFSNLLSEALYTGKAIGLSYGPAGLRHSLGHIISVWGADLDEDGNVVAIYVTDSDDKKLTIGDERVGLKRYKISTDDEGRARLTAYEENDNTGGEIRGLWTLDTGKQAWADYFDKTEQTGTDQAEQLEHHHHHH | 0 | 68 | 2190 | 0
PRT-214 (enzyme) MEVVEVWPYGQNPNGKTEILSQTEDSESLQRLRDIEDFQAEKKKEGVVYTKWLDGVDVDDHDFRKITDGDIEYYATPLLNGRGFYDINKDFNRDSDKCAAAVAANMFHYWLDRNRDNVDRFLKQNPEKHGIIELPDGQLKLSDFLNTYESDYGYRDKSKLFDFISNNFNGPVWTDKLLDNYINGYAYNYKYGRTIEDPTKNTSKINFFKEVFDEKLLTNNHSIRNYNEFSELLREALYTGKAIGLSYGPAGLRHSLGHIISVWGADLDEDGNVVAIYVTDSDDKKLTIGDERVGLKRYKVSSDDENRARLTAYEEKDNTGGEIRGLYTLDTGKQAWADYFDKTEQTGTDQAEQLEHHHHHH | 467 | 27 | 1650 | 0
PRT-212 (enzyme) MEVVEVWPYGQNPNGKTEILSQTEDSESLQRLRDIEDFQAEKKKEGVVYTKWLDGVDVKDHDFRKIVDGNIEYYATPLLNGRGFYDINKDFNQDSDKCAAAVAANMFHYWLDRNRDNVDRFLSQNPEKHGIIELPDGQLKLSDFLNTYESDDGYRDKSKLFDLISNNFNGPVWTDKLLDNYINGYAYNYKYGRTIEDPTKNTSKINFFKEVFNEKILTNIHSIRNQNEFSDKLSEALYTGKAIGLSYGPAGLRHSLGHIISVWGADLDEDGNVVAIYVTDSDDKKLTIGDERVGLKRYKVSTDDEGRLRLTAYEETDNTGGEIRGIWTLDTGKQAWADYFDKTEQTGTDQAEQLEHHHHHH | 13 | 435 | 1270 | 599
PRT-213 (enzyme) MEVVEVWPYGQNPNGKTEILSQTEDSESLQRLRDIEDFQAEKKKEGVVYTKWLDGVTVKDHDFRKIVDGNIEYYATPLLNGRGWYDINKDFNRDSDKCAAAVAANMFHYWLDRNRDNVDRFLKQNPEKHGIIELPDGQLKLSDFLNTYESDNGYRDKSKLFDFISKNFNGPVWTDKLLDNYINGYGYNYKYGRTIEDPTKNTSKINFFKKVFNEKILTDIHSIRNQNEFSDLLSEALYTGKAIGLSYGPAGLRHSLGHIISVWGADFDEDGNVVAIYVTDSDDKKLTIGDERVGLKRYKVSTDDEGRARLTAYTETDNTGGQVRGLYTLDTGTQAWADYFDKTEQTGTDQAEQLEHHHHHH | 0 | 244 | 1290 | 301
PRT-215 (enzyme) MEVVEVWPYGQNPNGKTEILSQTEDSESLQRLRDIEDFQAEKKKEGVVYTKWLDGVTVKDHDFRKIVDGNIEYYATPLLNGRGWYDINKDFNRDSDKCAAAVAANMFHYWLDRNRDNVDRFLKQNPEKHGIIELPDGQLKLSDFLNTYESDNGYRDKSKLFDFISKNFNGPVWTDKLLDNYINGYGYNYKYGRTIEDPTKNTSKINFFKKVFNEKILTDIHSIRNQNEFSDLLSEALYTGKAIGLSYGPAGLRHSLGHIISVWGADFDEDGNVVAIYVTDSDDKKLTIGDERVGLKRYKVSTDDEGRARLTAYTETDNTGGQVRGLWTLDTGTQAWADYFDKTEQTGTDQAEQLEHHHHHH | 73 | 310 | 708 | 309
PRT-206 (enzyme) MEVVEVWPYGQNPNGKTEILSQTEDSESLQRLRDIEDFQAEKKKENVVYTKWLDGVTVKDHDFRKIVDGNIAYYATPLLNGRGFYDINKDFNRDSDKCAAAVAANMFHYWLDINRDNVDRFLRQNPEKHGIIELPDGQLKLSDFLNTYESDDGYRDKSKLFDFISNNFNGPVWTDKLLDNYINGYGYNYKYGRTIEDPTKNTSKINFFKEVFNEKILTDNHSIRDQNEFSDLLSEALYTGKAIGLSYGPAGLRHSLGHIISVWGADLDADGNVVAIYVTDSDDKKLTIGDERVGLKRYKISYDDEGRARLTAYEEKDNTGGQIRGLYTLDTGKQAWADYFDKTEQTGTDQAEQLEHHHHHH | 570 | 0 | 2130 | 0
PRT-208 (enzyme) MEVVEVWPYGQNPNGKTEILSQTEDSESLQRLRDIEDFQAEKKKENVVYTKWLDGVTVKDHDFRKIVDGNIAYYATPLLNGRGFYDINKDFNRDSDKCAAAVAANMFHYWLDINRDNVDRFLRQNPEKHGIIELPDGQLKLSDFLNTYESDDGYRDKSKLFDFISNNFNGPVWTDKLLDNYINGYGYNYKYGRTIEDPTKNTSKINFFKEVFNEKILTDNHSIRDQNEFSDLLSEALYTGKAIGLSYGPAGLRHSLGHIISVWGADLDADGNVVAIYVTDSDDKKLTIGDERVGLKRYKISYDDEGRARLTAYEEKDNTGGQIRGLWTLDTGKQAWADYFDKTEQTGTDQAEQLEHHHHHH | 0 | 153 | 1700 | 113
PRT-207 (enzyme) MEVVEVWPYGQNPNGKTEILSQTEDSESLQRLRDIEDFQAEKKKEGVVYTKWLDGVDVDDHDFRKIVDGNIAYYATPLLNGRGFYDINKDFNRDSDKCAAAVAANMFHYWLDRNRDNVDRFLKQNPEKHGIIELPDGQLKLSDFLNTYESDNGYRDKSKLFDFISNNFNGPVWTDKLLDNYINGYAYNYKYGRTIEDPTKNTSKINFFKEVFNEKILTNNHSIRNYNTFSDLLSEALYTGKAIGLSYGPAGLRHSLGHIISVWGADLDADGNVVAIYVTDSDDKKLTIGDERVGLKRYKVSSDDENRLRLTAYEETHNTGGQIRGIWTLDTGKQAWADYFDKTEQTGTDQAEQLEHHHHHH | 0 | 249 | 1290 | 287
PRT-216 (enzyme) MEVVEVWPYGQNPNGKTEILSQTEDSESLQRLRDIEDFQAEKKKENVVYTKWLDGVDVDDHDFRKIVDGNTEYYATPLLNGRGWYDINKDFNRDSDKCAAAVAANMFHYWLDQNRDNIDRFLRQSPEKHGIIELPDGQLKLSDFLNTYESDDGYRDKSKLFDFISNNFNGPVWTDKLLDNYINGYGYNYKYGRTIEDPTKNNSKINFFKKVFNGKILTDNHSIRNYNTFSDLLSEALYTGKAIGLSYGPAGLRHSLGHIISVWGADLDADGNVVAIYVTDSDDKKLTIGDERVGLKRYKISYDDENRARLTAYEENDNTGGQIRGLETLDTGKQAWADYFDKTEQTGTDQAEQLEHHHHHH | 0 | 0 | 1660 | 0
PRT-210 (enzyme) MEVVEVWPYGQNPNGKTEILSQTEDSESLQRLRDIEDFQAEKKKQNVVYTKWLDGVTVDDHDFRKITDGNTAYYATPLLNGRGFYDINKDFNRDSDKCAAAVAANMFHYWLDQNRDNVDRFLKQNPEKHGIIELPDGQLKLSDFLNTYESDDGYRDKSKLFDFISNNFNGPVWTDKLLDNYINGYAYNYKYGRTIEDPTKNTSKINFFKEVFNEKLLTNNHSIRNQNEFSDLLSEALYTGKAIGLSYGPAGLRHSLGHIISVWGADFDADGNVVAIYVTDSDDKKLTIGDERVGLKRYKISSDDEGRARLTAYTEKHNTGGQIRGLYTLDTGKQEWADYFDKTEQTGTDQAEQLEHHHHHH | 0 | 87 | 1780 | 25
